US20260109758A1 (BIOSION, published 2026)

Assays:
[1] = biological target: T1, recombinant human IL4Rα-his (human, UniProt P24394 26-231, limits assumed, biotin-labeled in the capture ELISA); test: capture ELISA: antibody captured on anti-human IgG Fc F(ab')2, biotin human IL4Rα-his, SA-HRP
T1 construct: In-house made; not shown: His tag at the C-terminus
Description: Briefly, 96-well plates were coated with 2 μg/mL AffiniPure F(ab′)₂ Fragment Goat Anti-Human IgG, Fey fragment specific (Jackson Immuno Research, Cat #109-006-008) in PBS, 100 μL/well, overnight at 4° C. Plates were washed once with wash buffer (PBS+0.05% w/v Tween-20, PBST) and then blocked with 200 μL/well blocking buffer (5% w/v non-fatty milk in PBST) for 2 hours at 37° C. […] After a final wash, plates were incubated with 100 μL/well ELISA substrate TMB (Innoreagents, Cat #TMB-S-002). The reaction was stopped in 10 minutes at 25° C. with 50 μL/well 1M H₂SO₄, and the absorbance was read on a microplate reader using dual wavelength mode with 450 nm for TMB and 630 nm as the reference wavelength. Data was analyzed using Graphpad Prism and EC₅₀ values were reported.

[2] = biological target: T2, human IL4Rα expressed on 293F-IL4Rα cell surface (human, UniProt P24394 26-825); test: cell-based blocking FACS on 293F-IL4Rα cells; blocked ligand biotin human IL4
T2 construct: whole, on cells; also called human IL4Rα-expressing cells; cell surface IL4R
Description: Then, 1×10⁵ cells per well were incubated in 96 well-plates in 100 μL of serially diluted bispecific antibodies, the positive controls or negative control (starting at 100 nM with a 5-fold serial dilution) in FACS buffer for 40 minutes on ice. […] The plates were washed twice with FACS buffer, and then added and incubated for 40 minutes at 4° C. in dark with 100 μL/well R-Phycoerythrin Streptavidin (1:500 dilution in FACS buffer, Jackson Immunoresearch, Cat #016-110-084). Cells were washed twice and resuspended in FACS buffer. Fluorescence was measured using a Becton Dickinson FACS Canto II-HTS equipment. Data was analyzed using Graphpad Prism and IC₅₀ values were reported.

B1: BSI-502-001 (bispecific antibody, human IgG1, kappa)
heavy: EVQLVESGGGLVQPGGSLRLSCAASGFTFSTYGMSWVRQAPGKGLVWVATINSNGGSTSYPDSVKGRFTISRDNAKNTLYLQMNSLRAEDTAVYYCARFFRFRNAMDYWGQGTLVTVSSASTKGPSVFPLAPSSKSTSGGTAALGCLVKDYFPEPVTVSWNSGALTSGVHTFPAVLQSSGLYSLSSVVTVPSSSLGTQTYICNVNHKPSNTKVDKKVEPKSCDKTHTCPPCPAPEAQGGPSVFLFPPKPKDTLYITREPEVTCVVVDVSHEDPEVKFNWYVDGVEVHNAKTKPREEQYNSTYRVVSVLTVLHQDWLNGKEYKCQVSNKALPAPIEKTISKAKGQPREPQVYTLPPSRDELTKNQVSLTCLVKGFYPSDIAVEWESNGQPENNYKTTPPVLDSDGSFFLYSKLTVDKSRWQQGNVFSCSVMHEALHNHYTQKSLSLSPGKGGGGSGGGGSQVQLVQSGAEVKKPGASVKVSCKASGYTFTTYWMHWVRQAPGQGLEWMGVIDPSDSDTTYNQKFKGRVTMTRDTSTSTVYMELSSLRSEDTAVYYCTRSLDGYYDYWGQGTLVTVSSGGGGSGGGGSGGGGSGGGGSDIQMTQSPSSLSASVGDRVTITCRPTENIYSYLAWYQQKPGKAPKLLIYFARTLAEGVPSRFSGSGSGTDFTLTISSLQPEDFATYYCQHHYGTPWTFGGGTKVEIK
light: DIQMTQSPSSLSASVGDRVTITCRTSENIYSYLAWYQQKPGKAPKFLVYNAKTLAEGVPSRFSGSGSGTDFTLTISSLQPEDFATYYCQHYYGPPTWTFGQGTKVEIKRTVAAPSVFIFPPSDEQLKSGTASVVCLLNNFYPREAKVQWKVDNALQSGNSQESVTEQDSKDSTYSLSSTLTLSKADYEKHKVYACEVTHQGLSSPVTKSFNRGEC
notes: huC2C1A1A1-V15 IgG with an anti-TSLP scFv (hu1C5F12E9-V8, VH-VL) at the C-terminus of the heavy chain
Work on B1 yielded an EC50 [1] of 0.0218 nM.

B2: BSI-502-003 (bispecific antibody, human IgG1, kappa)
heavy: EVQLVESGGGLVQPGGSLRLSCAASGFTFSTYGMSWVRQAPGKGLVWVATINSNGGSTSYPDSVKGRFTISRDNAKNTLYLQMNSLRAEDTAVYYCARFFRFRNAMDYWGQGTLVTVSSGGGGSGGGGSGGGGSGGGGSDIQMTQSPSSLSASVGDRVTITCRTSENIYSYLAWYQQKPGKAPKFLVYNAKTLAEGVPSRFSGSGSGTDFTLTISSLQPEDFATYYCQHYYGPPTWTFGQGTKVEIKGGGGSGGGGSQVQLVQSGAEVKKPGASVKVSCKASGYTFTTYWMHWVRQAPGQGLEWMGVIDPSDSDTTYNQKFKGRVTMTRDTSTSTVYMELSSLRSEDTAVYYCTRSLDGYYDYWGQGTLVTVSSASTKGPSVFPLAPSSKSTSGGTAALGCLVKDYFPEPVTVSWNSGALTSGVHTFPAVLQSSGLYSLSSVVTVPSSSLGTQTYICNVNHKPSNTKVDKKVEPKSCDKTHTCPPCPAPEAQGGPSVFLFPPKPKDTLYITREPEVTCVVVDVSHEDPEVKFNWYVDGVEVHNAKTKPREEQYNSTYRVVSVLTVLHQDWLNGKEYKCQVSNKALPAPIEKTISKAKGQPREPQVYTLPPSRDELTKNQVSLTCLVKGFYPSDIAVEWESNGQPENNYKTTPPVLDSDGSFFLYSKLTVDKSRWQQGNVFSCSVMHEALHNHYTQKSLSLSPG
light: DIQMTQSPSSLSASVGDRVTITCRPTENIYSYLAWYQQKPGKAPKLLIYFARTLAEGVPSRFSGSGSGTDFTLTISSLQPEDFATYYCQHHYGTPWTFGGGTKVEIKRTVAAPSVFIFPPSDEQLKSGTASVVCLLNNFYPREAKVQWKVDNALQSGNSQESVTEQDSKDSTYSLSSTLTLSKADYEKHKVYACEVTHQGLSSPVTKSFNRGEC
notes: hu1C5F12E9-V8 IgG with an anti-IL4R scFv (huC2C1A1A1-V15, VH-VL) at the N-terminus of the heavy chain; AQQ and YTE already stand in the entry
B2 showed an EC50 [1] of 0.0416 nM.

B3: BSI-502-005 (bispecific antibody, human IgG1, kappa)
heavy: QVQLVQSGAEVKKPGASVKVSCKASGYTFTTYWMHWVRQAPGQGLEWMGVIDPSDSDTTYNQKFKGRVTMTRDTSTSTVYMELSSLRSEDTAVYYCTRSLDGYYDYWGQGTLVTVSSASTKGPSVFPLAPSSKSTSGGTAALGCLVKDYFPEPVTVSWNSGALTSGVHTFPAVLQSSGLYSLSSVVTVPSSSLGTQTYICNVNHKPSNTKVDKKVEPKSCDKTHTCPPCPAPEAQGGPSVFLFPPKPKDTLYITREPEVTCVVVDVSHEDPEVKFNWYVDGVEVHNAKTKPREEQYNSTYRVVSVLTVLHQDWLNGKEYKCQVSNKALPAPIEKTISKAKGQPREPQVYTLPPSRDELTKNQVSLTCLVKGFYPSDIAVEWESNGQPENNYKTTPPVLDSDGSFFLYSKLTVDKSRWQQGNVFSCSVMHEALHNHYTQKSLSLSPGKGGGGSGGGGSEVQLVESGGGLVQPGGSLRLSCAASGFTFSTYGMSWVRQAPGKGLVWVATINSNGGSTSYPDSVKGRFTISRDNAKNTLYLQMNSLRAEDTAVYYCARFFRFRNAMDYWGQGTLVTVSSGGGGSGGGGSGGGGSGGGGSDIQMTQSPSSLSASVGDRVTITCRTSENIYSYLAWYQQKPGKAPKFLVYNAKTLAEGVPSRFSGSGSGTDFTLTISSLQPEDFATYYCQHYYGPPTWTFGQGTKVEIK
light: DIQMTQSPSSLSASVGDRVTITCRPTENIYSYLAWYQQKPGKAPKLLIYFARTLAEGVPSRFSGSGSGTDFTLTISSLQPEDFATYYCQHHYGTPWTFGGGTKVEIKRTVAAPSVFIFPPSDEQLKSGTASVVCLLNNFYPREAKVQWKVDNALQSGNSQESVTEQDSKDSTYSLSSTLTLSKADYEKHKVYACEVTHQGLSSPVTKSFNRGEC
notes: hu1C5F12E9-V8 IgG with an anti-IL4R scFv (VH-VL) at the C-terminus of the heavy chain; AQQ and YTE already stand in the entry
For B3, the IC50 [2] was 0.381 nM.

B4: BSI-502-007 (bispecific antibody, human IgG1, kappa)
heavy: QVQLVQSGAEVKKPGASVKVSCKASGYTFTTYWMHWVRQAPGQGLEWMGVIDPSDSDTTYNQKFKGRVTMTRDTSTSTVYMELSSLRSEDTAVYYCTRSLDGYYDYWGQGTLVTVSSGGGGSGGGGSGGGGSGGGGSDIQMTQSPSSLSASVGDRVTITCRPTENIYSYLAWYQQKPGKAPKLLIYFARTLAEGVPSRFSGSGSGTDFTLTISSLQPEDFATYYCQHHYGTPWTFGGGTKVEIKGGGGSGGGGSEVQLVESGGGLVQPGGSLRLSCAASGFTFSTYGMSWVRQAPGKGLVWVATINSNGGSTSYPDSVKGRFTISRDNAKNTLYLQMNSLRAEDTAVYYCARFFRFRNAMDYWGQGTLVTVSSASTKGPSVFPLAPSSKSTSGGTAALGCLVKDYFPEPVTVSWNSGALTSGVHTFPAVLQSSGLYSLSSVVTVPSSSLGTQTYICNVNHKPSNTKVDKKVEPKSCDKTHTCPPCPAPEAQGGPSVFLFPPKPKDTLYITREPEVTCVVVDVSHEDPEVKFNWYVDGVEVHNAKTKPREEQYNSTYRVVSVLTVLHQDWLNGKEYKCQVSNKALPAPIEKTISKAKGQPREPQVYTLPPSRDELTKNQVSLTCLVKGFYPSDIAVEWESNGQPENNYKTTPPVLDSDGSFFLYSKLTVDKSRWQQGNVFSCSVMHEALHNHYTQKSLSLSPG
light: DIQMTQSPSSLSASVGDRVTITCRTSENIYSYLAWYQQKPGKAPKFLVYNAKTLAEGVPSRFSGSGSGTDFTLTISSLQPEDFATYYCQHYYGPPTWTFGQGTKVEIKRTVAAPSVFIFPPSDEQLKSGTASVVCLLNNFYPREAKVQWKVDNALQSGNSQESVTEQDSKDSTYSLSSTLTLSKADYEKHKVYACEVTHQGLSSPVTKSFNRGEC
notes: huC2C1A1A1-V15 IgG with an anti-TSLP scFv (VH-VL) at the N-terminus of the heavy chain; AQQ and YTE already stand in the entry
B4 gave an IC50 [2] of 0.199 nM.

B5: BSI-502-008 (bispecific antibody, human IgG1, kappa)
heavy: DIQMTQSPSSLSASVGDRVTITCRPTENIYSYLAWYQQKPGKAPKLLIYFARTLAEGVPSRFSGSGSGTDFTLTISSLQPEDFATYYCQHHYGTPWTFGGGTKVEIKGGGGSGGGGSGGGGSGGGGSQVQLVQSGAEVKKPGASVKVSCKASGYTFTTYWMHWVRQAPGQGLEWMGVIDPSDSDTTYNQKFKGRVTMTRDTSTSTVYMELSSLRSEDTAVYYCTRSLDGYYDYWGQGTLVTVSSGGGGSGGGGSEVQLVESGGGLVQPGGSLRLSCAASGFTFSTYGMSWVRQAPGKGLVWVATINSNGGSTSYPDSVKGRFTISRDNAKNTLYLQMNSLRAEDTAVYYCARFFRFRNAMDYWGQGTLVTVSSASTKGPSVFPLAPSSKSTSGGTAALGCLVKDYFPEPVTVSWNSGALTSGVHTFPAVLQSSGLYSLSSVVTVPSSSLGTQTYICNVNHKPSNTKVDKKVEPKSCDKTHTCPPCPAPEAQGGPSVFLFPPKPKDTLYITREPEVTCVVVDVSHEDPEVKFNWYVDGVEVHNAKTKPREEQYNSTYRVVSVLTVLHQDWLNGKEYKCQVSNKALPAPIEKTISKAKGQPREPQVYTLPPSRDELTKNQVSLTCLVKGFYPSDIAVEWESNGQPENNYKTTPPVLDSDGSFFLYSKLTVDKSRWQQGNVFSCSVMHEALHNHYTQKSLSLSPG
light: DIQMTQSPSSLSASVGDRVTITCRTSENIYSYLAWYQQKPGKAPKFLVYNAKTLAEGVPSRFSGSGSGTDFTLTISSLQPEDFATYYCQHYYGPPTWTFGQGTKVEIKRTVAAPSVFIFPPSDEQLKSGTASVVCLLNNFYPREAKVQWKVDNALQSGNSQESVTEQDSKDSTYSLSSTLTLSKADYEKHKVYACEVTHQGLSSPVTKSFNRGEC
notes: huC2C1A1A1-V15 IgG with an anti-TSLP scFv (VL-VH) at the N-terminus of the heavy chain; AQQ and YTE already stand in the entry
For B5, the IC50 [2] was 0.169 nM.
